Measurements: paper PMC4975651 (Molecular cell, 2016)

Biological target: ZMYND8-PBP (93-426aa) (human)
Assay: ITC

Kd: ~5.4 µM
Binder: ARTKQTARKSTGGKA (monomethyl-lysine at K4; acetyl-lysine at K14) [H3K4me1K14ac peptide]
